Measured values reported in patent US20200248181.
pKd: −log10 of the molar value.

System: gluten (wheat allergen)
Experiment: SPR
Details: 20-mer poly(dA) added at 5' end for SPR immobilization; 40 mM HEPES pH 7.5, 125 mM NaCl, 5 mM KCl, 1 mM MgCl2, 0.01% Tween 20; aptamer immobilized via poly(dA)/biotin-poly(dT)

Sequence	pKd
GAGGTTGGGTGGGGGAGG [Aptamer 2]	7.73
GAGGTTGGGTGGGGGAGGCAGCATGCGGGA [Aptamer 1]	7.84
